B1: antibody 380 (antibody, V domains shown)
VH: QVQLVESGGGVVQPGRSLRLSCAASGFTLKNYGMHWVRQAPGKGLEWVIVLSFDGSDEYKADSVRGRFTVSRDNSKNTLFLQMNSLRPDDTAVYYCAREQPTMIEGGRGPFDIWGQGTMVTVSS
VL: EVVMTQSPATLSVSPGDRATLSCRASQGVNSNLAWYQQKPGQAPRLLIYAASTRATGIPARFSASGSGTHFTLTISSLQSEDFAVYYCLQYNNWPPWTFGQGTKLEIK
B2: antibody 341 (antibody, V domains shown)
VH: QLQLQESGPGLVKPSETLSLTCTVSGGSISSSSYYWGWIRQPPGKGLEWIGSIYYSGSTYYNPSLKSRVTISVDTSKNQFSLKLSSVTAADTAVYYCARRPLRYFDWLTNFDYWGQGTLVTVSS
VL: EIVLTQSPATLSLSPGERATLSCRASQSVSSYLAWYQQKPGQAPRLLIYDASNRATGIPARFSGSGSGTDFTLTISSLEPEDFAVYYCQQRSNWPITFGQGTRLEIK
B3: antibody 465 (antibody, V domains shown)
VH: QITLKESGPTLVKPTQTLTLTCTFSGFSLSTSGVGVGWIRQPPGKALEWLALIYWDDDKHYSPSLKSRLTITKDTSKNQVVLTMTNMDPVDTATYYCAHMYYDILSGYYYGMDVWGQGTTVTVSS
VL: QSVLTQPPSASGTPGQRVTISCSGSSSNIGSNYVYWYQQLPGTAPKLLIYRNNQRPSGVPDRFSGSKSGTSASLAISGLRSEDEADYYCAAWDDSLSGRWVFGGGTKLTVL
B4: antibody 467 (antibody, V domains shown)
VH: QVQLVQSGAEVKKPGASVKVSCKASGYTFISYGISWVRQAPGQGLEWMGWISAYNGNTNYAQKLQGRVTMTTDTSTSTAYMELRSLRSDDTAVYYCARGLWPGYYYGSGSYSAFHIWGQGTMVTVSS
VL: QSALTQPPSASGSPGQSVSISCTGTSSDVGGYNYVSWYQQHPGKAPKLMIYEVSKRPSGVPDRFSGSKSGNTASLTVSGLQAEDEADYYCSSYAGSNKVFGGGTKLTVL
B5: antibody 482 (antibody, V domains shown)
VH: EVQLVESGGGLVQPGGSLRLSCAASGFTFSSYWMTWVRQAPGKGLEWVANIKQDGSEKYYVDSVKGRFTISRDNAKNSLYLQMNSLRAEDTAVYYCARGVGSWYLGFDYWGQGTLVTVSS
VL: NFMLTQPHSVSESPGKTVTISCTGSSGSIASNYVQWYQQRPGSAPTTVIYEDNQRPSGVPDRFSGSIDSSSNSASLTISGLKTEDEADYYCQSYDGSSYVFGTGTKVTVL
B6: antibody 501 (antibody, V domains shown)
VH: QVQLVQSGAEVKKPGASVKVSCKASGYTFTSYYVHWVRQAPGQSLEWMGVISPSTGSTTYAQNFQGRVTMTRDTSTTTVYMELSSLRSEDTAVYYCARDDYYDSTRYFDLWGRGTLVTVSS
VL: QSALTQPASVSGSPGQSISFSCTGTSSDIGAYNYVSWYQQHPGRAPKLMIYDVGNRPSGVSNRFSGSKSGNTASLTISGLQAEDEADYYCSSYTSSSTQVFGTGTKVTVL
B7: antibody 502 (antibody, V domains shown)
VH: QVQLVQSGAEVKKPGASVKVSCKASGYTFTSYYMHWVRQAPGQGLEWMGIINPSGGSTSYAQKFQGRVTMTRDTATSTVYMELSSLRSEDTAVYYCARGGGQISMIIVVMDDAFDIWGQGTMVTVSS
VL: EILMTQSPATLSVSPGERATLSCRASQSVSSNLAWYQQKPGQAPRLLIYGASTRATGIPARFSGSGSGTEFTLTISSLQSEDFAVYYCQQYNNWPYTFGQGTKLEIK
B8: antibody 506 (antibody, V domains shown)
VH: QITLKESGPTLVKPTQTLTLTCTFSGFSLSTSGVGVGWIRQPPGKALEWLALIYWDDDKRYSPSLKSRLTITKDTSKNQVVLTMTNMDPVDTATYYCAHHSLSSIFDYWGQGTLVTVSS
VL: QSALTQPASVSGSPGQSITISCTGTSSDVGDYNYVSWYQQHPGKAPKLMIYEVSNRPSGVSNRFSGSKSGNTASLTISGLQAEDEADYYCSSYTSSSTVFGGGTKLTVLG
B9: antibody 508 (antibody, V domains shown)
VH: EVQLVQSGAEVKKPGATVKISCKVSGYTFTDYYMHWVQQAPGKGLEWMGLVDPEDGETIYAEKFQGRVTITADTSTDTAYMELSSLRSEDTAVYYCAVENMITFGGVIVKRGAFDIWGQGTMVTVSS
VL: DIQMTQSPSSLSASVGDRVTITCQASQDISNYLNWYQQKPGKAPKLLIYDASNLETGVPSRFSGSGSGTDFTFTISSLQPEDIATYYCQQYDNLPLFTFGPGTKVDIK
B10: antibody 332 (antibody, V domains shown)
VH: QVTLRESGPALVKPTQTLTLTCTFSGFSLSTSGMCVSWIRQPPGKALEWLALIDWDDDKYYSTSLKTRLTISKDTSKNQVVLTMTNMDPVDTATYYCARIHDDILTGYHYVDYWGQGTLVTVSS
VL: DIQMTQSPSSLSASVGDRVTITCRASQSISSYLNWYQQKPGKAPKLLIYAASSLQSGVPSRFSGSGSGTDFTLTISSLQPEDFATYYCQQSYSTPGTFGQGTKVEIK
B11: antibody 333 (antibody, V domains shown)
VH: QVHLVESGGGVVLPGRSLRLSCSASQFIFSNYDMHWVRQSPGMGLEWVAGISSDGSDKYYIDSVRGRFTISRDNAKNTLFLQMNSLTTEDTAVYSCAKGGGKFGQYWGRGTLVTVSS
VL: AIQMTQSPSSLSASVGDRVTITCRASQVIRNDLAWFQQKPGEAPNLLVYSASNLQSGVPSRFSGSGSGTDFTLTISSLQPEDFATYYCLQDYSYPYTFGQGTKLDMK
B12: antibody 343 (antibody, V domains shown)
VH: QVQLVESGGDVVQPGTSLRLSCAASGFTFNNYGFHWVRQAPGKGLEWVALISSDGASTHYADSVKGRFTISRDSSVNTLYLQMNSLSLEDTAVYYCATGHCGTTCYYFDYWGQGTLVSVSS
VL: DIQVTQSPSYLSASVGDRVTITCRASQTISTFLQWYQQKVGKAPKLLIYAASTLQSGVPSRFSGSGSGTDFSLTISSLQPEDFATYYCQQSYSAPLSFGGGTKVEIK
B13: antibody 351 (antibody, V domains shown)
VH: HVQLVESGGGVVQPGRSLRLSCAASGFISRNYGMEWVRQAPGQGLEWVAGIWYDGSKKYYADSVKGRFTISRDTSKNTLFLQMDSLRAEDTAVFYCATATKTFCGGDCPPGGMDVWGQGTTVTVST
VL: SYVLTQPPSVSVAPGKTAWITCVGNNIESESVHWYQQRPGQAPVLVIYYDSDRPSGIPERFFGSNSGNTATLTISRVEAGDEADYYCQVWDSNSDLMVFGGGTKLTVL
B14: antibody 434 (antibody, V domains shown)
VH: QVQLVQSGAEVKKPGASVQVSCKASGYTFSDYYIFWVRQAPGQGLEWMGCINPKSGGAIYAQRFQGRVTMTRDTSFNTAYMEMNRLGSDDTAVYYCVTRGPPDIAASGFAWHLDVWGQGTTVTVSS
VL: DIVMTQSPLSLPVTPGEPASISCRSSQSLLSSNGYNYLEWYLQKPGQSPQLLMYLGSNRASGVPDRFSGSGSGTDFTLKINRVEAEDVGVYYCMQALQTPLTFGGGTKVEIK
B15: antibody 443 (antibody, V domains shown)
VH: QMRLEESGPGLVKPSETLSLTCTVAGGSITSSDYFWGWLRQSPGKGLEWIASTYHGGSIQYHPALKSRVTISVDASKNQISLRLSSVTAADTAVYYCARDRGDDGPMGTYYFDHWGQGALVTVSS
VL: QSVLTQPPSVSGAPGQSVTISCAGSSSNIGAGHDVHWYQQIPGTAPKLLICGNTNRPSGVPERFSGSRSGTSASLAITGLQAEDEAVYYCQSYDPSHVFFGTGTKLTVL

target: T1, SARS-CoV-2 full length spike protein, V483A mutant, expressed on CHO cells (SARS-CoV-2, UniProt P0DTC2 14-1273); test: flow cytometry on CHO cells expressing spike V483A
T1 construct: also called SARS-CoV-2 V483A mutant

| Binder | binding result |
| --- | --- |
| B1 | no binding |

target: T2, SARS-CoV-2 full length spike protein, V483A mutant, expressed on the surface of CHO cells (SARS-CoV-2, UniProt P0DTC2 14-1273); test: not given

| Binder | median fluorescence intensity, fold over isotype control [fold over isotype] |
| --- | --- |
| B2 | 1.01 |

target: SARS-CoV-2 full length spike protein, D614G mutant, expressed on CHO cells (SARS-CoV-2, UniProt P0DTC2 14-1273); test: not given

| Binder | median fluorescence intensity, fold over isotype control [fold over isotype] |
| --- | --- |
| B3 | 68.3 |
| B4 | 7.54 |
| B5 | 14.3 |
| B6 | 46.1 |
| B7 | 77.3 |
| B8 | 69.5 |
| B9 | 3.99 |

target: SARS-CoV-2 full length spike protein, V367F mutant, expressed on CHO cells (SARS-CoV-2, UniProt P0DTC2 14-1273); test: not given

| Binder | median fluorescence intensity, fold over isotype control [fold over isotype] |
| --- | --- |
| B3 | 37.3 |
| B4 | 30.6 |
| B5 | 2.89 |
| B6 | 30 |
| B7 | 51.8 |
| B8 | 42.3 |
| B9 | 2.71 |

target: T2, SARS-CoV-2 full length spike protein, …; test: flow cytometry, CHO cells expressing full-length spike V483A

| Binder | binding result |
| --- | --- |
| B2 | no binding |
| B10 | no binding |
| B11 | no binding |
| B12 | no binding |
| B13 | no binding |

target: T3, SARS-CoV-2 full length spike protein, V483A mutant (SARS-CoV-2, UniProt P0DTC2 14-1273); test: as above
T3 construct: also called SARS-CoV-2 V483A mutant

| Binder | binding result |
| --- | --- |
| B14 | no binding |
| B15 | no binding |
